One data set is described as follows: NADPH oxidation. Type of data set: biochemical. The settings on record: 25° C. Here is the method: (§1) The initial rate of NO synthesis, NADPH oxidation, or cytochrome c reduction by wild type and mutants was quantitated at 25° C. as described in Abu-Soud et al. (1997) J. Biol. Chem 272: 10769-10772. H2O2-dependent nNOS oxidation of NOHA to nitrite was assayed in 96-well microplates at 30° C. The assay volume was 100 μl and contained 40 mM EPPS, pH 7.6, 250 nM nNOS or mutants, 1 mM NOHA, 1 mM DTT, 25 units/ml superoxide dismutase 0.5 mM EDTA, and 4 μM H4B. Reactions were initiated by adding 30 mM H2O2 and stopped after 10 min by adding 1300 units of catalase. Nitrite was detected at 550 nm using the Griess reagent (100 μL) and quantitated based on nitrite standards.

A short description of data set [1]: Ferrous-nitrosyl complex formation during aerobic steady state. The format is biochemical. The note with it: air-saturated buffer, 15° C., 1 mM Arg, 20 μM H4B. Here is the method:
NO down-regulates the rate of NO synthesis and associated electron flux by binding to the nNOS heme. We therefore investigated if NO binding to the heme was altered by the Trp-409 mutations during aerobic steady-state catalysis. In this study, 0.6 μM nNOS was diluted is an air-saturated 40 mM EPPS buffer, pH 7.6, containing 0.9 mM EDTA, 3 μM CaM, 200 μM DTT, 20 μM H4B, 80 μM NADPH, and 1 mM Arg; final volume 1 ml. Reactions were started by adding 1.2 mM Ca^2+ and monitored by wavelength scanning at 15° C.

Data set [2] in a line: Ferric- and ferrous-NO complex formation under anaerobic conditions. Type of data set: binding. The settings on record: Arg and H4B present. Here is the method:
Given the above, we investigated if either mutant could form stable ferric or ferrous NO complexes with authentic NO under an anaerobic atmosphere in the presence of Arg and H4B, as occurs for wild-type nNOS. Concentrated small amounts of nNOS or mutants were placed into an anaerobic cuvette with 4 μM H4B, 1 mM Arg, and 200 μM DTT and made anaerobic by repeated cycles of evacuation and equilibration with deoxygenated argon gas. A 40 mM EPPS buffer containing 4 μM H4B, 1 mM Arg, and 200 μM DTT was separately made anaerobic, and 1 ml of this solution was transferred to the cuvette. NO gas was added to the head space and dissolved by mixing. Dithionite solution was then added in some cases.

A short description of data set [3]: NO synthesis from NOHA (initial rate). Type of data set: biochemical. The note with it: 25° C. The method, then: as §1
Data set [4] can be described thus: NO synthesis from Arg (initial rate). The format is biochemical. The note with it: for NO synthesis from Arg, turn over number (kcat): 25° C. The method, then:
as §1

A further data set deals with cytochrome c. Put plainly: Cytochrome c reduction. Type of data set: biochemical. The note with it: 25° C. The method, then: as §1
Data set [5] in a line: NO synthesis versus O2 concentration (oxyhemoglobin assay). Type of data set: biochemical. The note with it: O2 levels ranging from 0 to 230 mm O2, 25° C., FIG. 3. The method, then:
The reaction was started by adding 0.2 mM NADPH. Rates of synthesis were quantified as follows: the initial rate of NO synthesis by nNOS was quantitated at 25° C. using oxyhemoglobin assay for NO, according to the method found in Abu-Soud and Stuehr (1993) Proc. Natl. Acad. Sci. U.S.A. 90:10769-10772. The NO mediated conversion of oxyhemoglobin to met-hemoglobin was monitored over time as an absorbence increase at 401 nm, and quantitated using the extinction coefficient of 38 mM^−1 cm^−1. Quantitation was done with a Hitachi U2000 spectrophotometer. O2 concentration measurement in each reaction was calculated based on the O2 concentration of a saturated buffer at 25° C. (approximately 0.26 mM) and the mixing ratios of this solution with an anaerobic buffer that contained no oxygen. […] The difference in the enzymatic activity of the NOS variant and wild-type NOS is most pronounced at low concentrations of O2, i.e., concentrations ranging from 0 to 50 μM.

The mark [6] stands for this setting: CaM-bound, +H4B, NAME (nitro-L-arginine methyl ester).

These results are taken from patent publication US6620616B1, “Nucleic acids encoding nitric oxide synthase variants” (The Cleveland Clinic Foundation, priority 2000, dated 2003).

For the substance “nNOS: wild-type rat neuronal nitric oxide synthase, His6-tagged, expressed in E. coli; non-variant comparator [reference compound]”, the “NADPH oxidation, turn over number (kcat)” value was 170 mol of product formed/mol of protein/min in “NADPH oxidation” (+CaM); 160 + 12 min^−1 in the data set “NADPH oxidation” (CaM-bound, +H4B, Arg); 22 + 4 min^−1 in “NADPH oxidation” (setting [6]); 250 + 20 min^−1 in “NADPH oxidation” (CaM-bound, +H4B, agmatine); 500 + 25 min^−1 in the data set “NADPH oxidation” (CaM-bound, +H4B, −Arg); 290 + 25 min^−1 in the data set “NADPH oxidation” (CaM-bound, −H4B, −Arg). In “NADPH oxidation” (−CaM), the “NADPH oxidation, turn over number (kcat)” value is 11.2 mol of product formed/mol of protein/min. Besides, the “6-coordinate ferrous-NO complex accumulation (absorbance buildup at 436 nm) during steady-state NO synthesis” value in data set [1] is on record as “a significant percentage accumulated as the 6-coordinate ferrous-NO complex”. Besides, the “ferric NO complex formation with authentic NO” value in data set [2] is “formed stable 6-coordinate ferric NO complexes”. Moreover, the “ferrous-NO complex after dithionite reduction” value in data set [2] (dithionite added) was “stable 6-coordinate ferrous-NO complex”. Also, the “NO synthesis from NOHA, turn over number (kcat)” value in data set [3] (+CaM) is 115 mol of product formed/mol of protein/min; in data set [3] (−CaM), 0 mol of product formed/mol of protein/min. The “NO synthesis from Arg, turn over number (kcat)” value was 96 mol of product formed/mol of protein/min in data set [4] (+CaM) and 0 mol of product formed/mol of protein/min in data set [4] (−CaM). Further, the “Cytochrome c reduction, turn over number (kcat)” value (shortened to “Cytochrome c reduction, turn”) with cytochrome c (+CaM) was 7000 mol of product formed/mol of protein/min; with cytochrome c (−CaM) it was 500 mol of product formed/mol of protein/min.
Consider “W409F: rat nNOS variant with phenylalanine (F) at position 409 in place of tryptophan, His6-tagged, expressed in E. coli”, for which the “NADPH oxidation, turn over number (kcat)” value is 445 mol of product formed/mol of protein/min in “NADPH oxidation” (+CaM); 480 + 20 min^−1 in the data set “NADPH oxidation” (CaM-bound, +H4B, Arg); 16 + 3 min^−1 in the data set “NADPH oxidation” (setting [6]); 180 + 10 min^−1 in the data set “NADPH oxidation” (CaM-bound, +H4B, agmatine); 189 + 15 min^−1 in “NADPH oxidation” (CaM-bound, +H4B, −Arg); 105 + 10 min^−1 in the data set “NADPH oxidation” (CaM-bound, −H4B, −Arg). Besides, the “NADPH oxidation, turn over number (kcat)” value in the data set “NADPH oxidation” (−CaM) was 5.6 mol of product formed/mol of protein/min. The “6-coordinate ferrous-NO complex accumulation (absorbance buildup at 436 nm) during steady-state NO synthesis” value in data set [1] was “small”. Besides, in data set [5], the “rate of NO production relative to wild-type nNOS” value was “faster than the wild-type nNOS protein”. Besides, the entries for the “NO synthesis from NOHA, turn over number (kcat)” value in data set [3] (+CaM) and in data set [3] (−CaM) were 453 mol of product formed/mol of protein/min and 0 mol of product formed/mol of protein/min, respectively. The “faster rate of NO synthesis from Arg compared with the wild type” value in data set [4] (+CaM) is listed as 3 fold. Besides, the “NO synthesis from Arg, turn over number (kcat)” value in data set [4] (+CaM) is given as 286 mol of product formed/mol of protein/min; in data set [4] (−CaM), 0 mol of product formed/mol of protein/min. Further, the figures for the “Cytochrome c reduction, turn” value in the data set with cytochrome c (+CaM) and in the data set on cytochrome c (−CaM) were 5000 mol of product formed/mol of protein/min and 230 mol of product formed/mol of protein/min, respectively.
In the case of “W409Y: rat nNOS variant with tyrosine (Y) at position 409 in place of tryptophan, His6-tagged, expressed in E. coli”, the “NADPH oxidation, turn over number (kcat)” value in “NADPH oxidation” (+CaM) is given as 237 mol of product formed/mol of protein/min; in “NADPH oxidation” (CaM-bound, +H4B, Arg), 250 + 20 min^−1; in the data set “NADPH oxidation” (setting [6]) it was 25 + 4 min^−1; in the data set “NADPH oxidation” (CaM-bound, +H4B, agmatine), 170 + 10 min^−1; in the data set “NADPH oxidation” (CaM-bound, +H4B, −Arg), 124 + 4 min^−1; in the data set “NADPH oxidation” (CaM-bound, −H4B, −Arg), 74 + 8 min^−1. For the same substance, in the data set “NADPH oxidation” (−CaM), the “NADPH oxidation, turn over number (kcat)” value is listed as 11.2 mol of product formed/mol of protein/min. Moreover, the “6-coordinate ferrous-NO complex accumulation (absorbance buildup at 436 nm) during steady-state NO synthesis” value in data set [1] is “no”. For the same substance, the “rate of NO production relative to wild-type nNOS” value in data set [5] is on record as “faster than the wild-type nNOS protein”. For the same substance, the “NO synthesis from NOHA, turn over number (kcat)” value in data set [3] (+CaM) is 180 mol of product formed/mol of protein/min; in data set [3] (−CaM) it was 0 mol of product formed/mol of protein/min. Besides, the “faster rate of NO synthesis from Arg compared with the wild type” value in data set [4] (+CaM) was found to be 1.8 fold. In addition, the “NO synthesis from Arg, turn over number (kcat)” value in data set [4] (+CaM) is 155 mol of product formed/mol of protein/min; in data set [4] (−CaM) it was 0 mol of product formed/mol of protein/min. The entries for the “Cytochrome c reduction, turn” value in the data set on cytochrome c (+CaM) and with cytochrome c (−CaM) were 5546 mol of product formed/mol of protein/min and 280 mol of product formed/mol of protein/min, respectively.
